# Test results published in patent US20230303994.
Protein,Activity PPI cleavage (pre-pro-human insulin),Selectivity (pre-pro-human insulin) [%],Purity Insulin Glargine (pre-pro-insulin glargine) [area %],Yield (pre-pro-insulin glargine) [%],desArg (pre-pro-insulin glargine) [area %],desThr (pre-pro-insulin glargine) [area %]
trypsin variant SEQ ID NO: 97 (protein) IVGGYTCAANSIPYQVSLNSGSHRCGGSLINSQWVVSAAHCYKPRIQVRLGEHNIHVLEGNEQFINAAKIITHPNFNPNTLDNDIMLIKLSSPATLNSAVATVSLPTSCAAAGTECLISGWGNTASSGSSMPSLLQCLKAPVLSDSSCKSSYPGQITGNMICVGFLEGGADACQGDSGGPVVCNGQLQGIVSSGYGCAQKNKPGVYTKVCNYVNWIQQTIAAN,yes,>90,89.4,> 90,< 0.5,1.2
trypsin variant SEQ ID NO: 99 (protein) IVGGYTCAANSIPYQVSLNSGSHRCGGSLINSQWVVSAAHCYKSRIQVRLGEHNIHVLEGNEQFINAAKIITHPNFNPNTLDNDIMLIKLSSPATLNSNVATVSLPTSCAAAGTECLISGWGNTSSSGSSYPSLLQCLKAPVLSDSSCKSSYPGQITGNMICVGFLEGGADACQGDSGGPVVCNGQLQGIVSSGYGCAQKNKPGVYTKVCNYVNWIQQTIAAN,yes,>80,89.2,> 90,0.9,1
trypsin variant SEQ ID NO: 101 (protein) IVGGYTCAANSIPYQVSLNSGSHRCGGSLINSQWVVSAAHCYKSRIQVRLGEHNIHVLEGNEQFINAAKIITHPNFNPNTLDNDIMLIKLSSPATLNSNVATVSLPTSCAAAGTECLISGWGNTSSSGSSMPSLLQCLKAPVLSDSSCKSSYPGQITGNMICVGFLEGGADACQGDSGGPVVCNGQLQGIVSSGYGCAQKNKPGVYTKVCNYVNWIQQTIAAN,yes,>90,89.2,> 90,1,0.4
trypsin variant SEQ ID NO: 98 (protein) IVGGYTCAANSIPYQVSLNSGSHRCGGSLINSQWVVSAAHCYKPRIQVRLGEHNIHVLEGNEQFINAAKIITHPNFNPNTLDNDIMLIKLSSPATLNSAVATVSLPTSCAAAGTECLISGWGNTASSGSSMPSLLQCLKAPVLSDSSCKSSYPGQITGNMICVGFLEGGADSCQGDSGGPVVCNGQLQGIVSSGYGCAQKNKPGVYTKVCNYVNWIQQTIAAN,yes,>90,89.4,> 90,0.9,2.7
trypsin variant SEQ ID NO: 102 (protein) IVGGYTCAANSIPYQVSLNSGSHRCGGSLINSQWVVSAAHCYKPRIQVRLGEHNIHVLEGNEQFINAAKIITHPNFNPNTLDNDIMLIKLSSPATLNSHVATVSLPTSCAAAGTECLISGWGNTSSSGSSMPSLLQCLKAPVLSDSSCKSSYPGQITGNMICVGFLEGGADACQGDSGGPVVCNGQLQGIVSSGYGCAQKNKPGVYTKVCNYVNWIQQTIAAN,yes,>90,88.7,> 90,0.4,1.2
trypsin variant SEQ ID NO: 100 (protein) IVGGYTCAANSIPYQVSLNSGSHRCGGSLINSQWVVSAAHCYKPRIQVRLGEHNIDVLEGNEQFINAAKIITHPNFNPNTLDNDIMLIKLSSPATLNSHVATVSLPTSCAAAGTECLISGWGNTCSSGSSMPSLLQCLKAPVLSDSSCKSSYPGQITGNMICVGFLEGGADACQGDSGGPVVCNGQLQGIVSSGYGCAQKNKPGVYTKVCNYVNWIQQTIAAN,yes,>90,80,> 80,0.7,0.3
